# Target: T1, Recombinant Human TRAIL R2/TNFRSF10B Fc Chimera Protein (human, UniProt O14763 56-210)
# T1 construct: TNFRSF10B (DR5, TRAIL R2), human, fused to Fc; also called rhDR5–Fc; DR5–Fc; source: bought: R&D Systems (631-T2)
# Test: SPR; Biacore T100; recombinant DR5 (R&D 631-T2-100) coupled to a CM5 chip in 10 mM sodium acetate pH 5.5; recombinant FasL or TRAIL passed over at 30 μL/min for 120 s; empty flow cell subtracted; equilibrium affinity measurements
# Details: both partners purified
binder,measurement,value
"recombinant human soluble Fas ligand (His-tagged) (ligand, UniProt P48023 130-281, looked up, Fas ligand (TNFSF6), human, soluble recombinant form; also called sFasL; rhFasL; source: bought: R&D Systems (126-FL)) QIGHPSPPPEKKELRKVAHLTGKSNSRSMPLEWEDTYGIVLLSGVKYKKGGLVINETGLYFVYSKVYFRGQSCNNLPLSHKVYMRNSKYPQDLVMMEGKMMSYCTTGQMWARSSYLGAVFNLTSADHLYVNVSELSLVNFEESQTFFGLYKL",Kd,1.23 pM

# — PMC8257255, “Soluble Fas ligand drives autoantibody-induced arthritis by binding to DR5/TRAIL-R2” (eLife, 2021)
